According to patent US20190369104A1, “P27 TYROSINE PHOSPHORYLATION AS A MARKER OF CDK4 ACTIVITY AND METHODS OF USE THEREOF” (THE RESEARCH FOUNDATION FOR THE STATE UNIVERSITY OF NEW YORK, priority 2016, published 2019):

B1: ALT: small peptide ALT, which contains a portion of Brk's SH3 domain; alternatively-spliced form of Brk (SEQ ID NO: 12) (protein)
chain: MVSRDQAHLGPKYVGLWDFKSRTDEELSFRAGDVFHVARKEEQWWWATLLDEAGGAVAQGYVPHNYLAERETVESEPAGHAGCAALQDLAACRGPAAPERGGVLPQPARACELPQGPEPVPRPAAGRALPEARA
modifications: Alt-Brk
B2: GST-K2 (GST-tagged p27 PxxP peptide K2) (peptide)
chain: DVSGSRPAAPLIGAPA
notes: also called K2 site; not shown: N-terminal GST tag from the pGEX-KG expression vector
B3: Brk SH3 domain (displayed on phage) (other)
chain: KYVGLWDFKSRTDEELSFRAGDVFHVARKEEQWWWATLLDEAGGAVAQGYVPHNYLAER
notes: also called SH3 domain of Brk

Key:
MCF7 cells = experiment: Palbociclib inhibitor treatment, viable cell count IC50; type: cell-based; settings: Homo sapiens
Method: (§1) Cells were seeded on six well plates in duplicate, 5.0×10^4 per well. 24 hours post seeding, one well for each plate was treated with trypsin and counted using the Biorad Automated cell counter. 48 hours post seeding, another well was treated with trypsin and counted and the rest of the wells were treated with Palbociclib (SelleckChem) at 50 nM, 100 nM, 200 nM and 400 nM. DMSO was used as a negative control. Cells were counted again 24 and 48 h post treatment. The IC50 values were determined by normalizing the number of viable cells treated with different concentrations of Palbociclib to the number of viable cells treated with DMSO for each cell line 48 hours post treatment. The number of viable cells treated with DMSO was considered 100%. The log of the viability values was obtained and the data was fitted to a nonlinear regression curve, which was used to generate the IC50 values using Graphpad Prism software.

HCC1954 cells = experiment: as above; type: cell-based; settings: Homo sapiens; HCC1954 cells (Rb+)
Method: as §1

MDA MB231 cells = experiment: as above; type: cell-based; settings: Homo sapiens, MDA-MB-231
Method: as §1

p27 pY88 in MCF7 cells = experiment: Dual pY/p27 IHC assay on cell blocks; type: cell-based; set-up: key to pY staining intensity: 0: no pY staining; 1: weak pY staining; 2: moderate pY staining; 3: strong pY staining; settings: MCF7 cells treated with 400 nM Palbociclib, 48 h
Method: 1×10^12 cells were grown in tissue culture, spun down and fixed in 10% formalin, embedded in paraffin, and then analyzed in the dual pY/p27 IHC assay as described. MCF7 cells were treated with 400 nM Palbociclib for 48 h. before cell block preparation. […] On day 1, slides are labeled with a pencil and baked in an oven at 65° C. for 30 minutes and immediately transferred from the oven to a coplin jar containing Xylene. Slides are rinsed in Xylene 4× for 3 minutes each at room temperature followed by a graded alcohol wash at 100%-95%-75% ethanol 3 times, 3 min each at R.T. Slides were then hydrated by incubation in H2O once for 3 min. After drying, a hydrophobic barrier was created around the tissue using a PAP pen. Endogenous peroxide was blocked by incubating the slides with Peroxide block for 30 min at room temp. The slides were washed with TBS-0.1% Tween 20 3 times for 3 minutes each followed by incubation in 1×PBS for 3 min. After an incubation with a with protein block for 1 h at R.T, P27 [MUT] antibody diluted 1:200 in the DAKO antibody diluent was added to the slides for an overnight incubation at 4° C. On day 2, a 1× solution of antigen retrieval was prepared from 10× stock and it was equilibrated at 100° C. in the water bath. […]

[1] = system: MCF7-Wt Brk expressing cells; experiment: Palbociclib (PD) resistance of Brk-overexpressing cells, IC50; type: cell-based; settings: Homo sapiens
Method: as §1
Generation of the WT-Brk, KM-Brk, and YF-Brk has been described (Palka-Hamblin H. L. et al., […] J. Cell Sc. 123: 236-45). Amphotropic retroviruses were generated by transfection using Lipofectamine 2000 (Life Technologies 11668-019) of HEK 293 cells with pAmpho envelope and pBabe or pTRE3G tetracycline inducible constructs. Following viral infection of MCF7 cells, stable integrants were isolated by puromycin selection. […]

[2] = system: ER/PR+, Her2− breast cancer cell lines; experiment: ALT (alone or with Palbociclib) in breast cancer cell lines; type: cell-based
Excerpt: To block pY in breast cancer cell lines, we used a small peptide ALT, which contains a portion of Brk's SH3 domain. ALT binds to p27, blocks Brk's association and ability to phosphorylate p27, inhibiting cdk4 and increasing p27's ability to inhibit cdk2. We generated Tetracycline inducible cell lines that expressed ALT and/or engineered a lipid-based nanoparticle delivery vehicle (NP-ALT), permitting us to test ALT as a first generation therapeutic. ALT was also used with Palbociclib to determine if combination therapy reduced drug resistance. pY inhibition comes with a built in biomarker for efficacy and the identification of responsive cell lines and/or future patients. We developed a dual IHC assay for p27 and pY, which we used to analyze both a breast cancer cell line panel previously stratified for Palbociclib sensitivity as well as paraffin-embedded, archival human tumor samples.

[3] = target: T1, Yes SH3 domain (displayed on phage) (UniProt P07947 91-152, limits assumed); experiment: phage-ELISA on immobilised GST-K2
T1 construct: domain: SH3
Excerpt: (§2) (FIG. 1A) p27 sequence highlighting the proline tracts of the three putative SH3 domain recruitment sites (PxxP): K1 (90-96), K2 (114-117) and K3 (188-195) (SEQ ID NO: 1). Phage-ELISA-analysis of SFK SH3 interactions with p27 (FIG. 1B) or p27's PxxP motifs (FIG. 1C). Data shown is the mean of three independent experiments±standard deviation after normalization and subtraction of the background binding to GST.
(§3) Phage supernatants were generated and binding of SH3-phages to recombinantly produced His-tagged-p27 or GST-PxxP-peptides were analyzed as described (Asbach B. et al., (2012) PLoS One 6: e38540).

[4] = target: B3; experiment: phage-ELISA on immobilised GST-K2
Excerpt: as §2, §3

[5] = target: T2, Abl SH3 domain (displayed on phage) (UniProt P00519 61-121, limits assumed); experiment: phage-ELISA on immobilised GST-K2
T2 construct: domain: SH3
Excerpt: as §2, §3

[6] = target: T3, recombinantly produced His-tagged p27 (full-length p27) (human, UniProt P46527 1-198); experiment: phage-ELISA, SH3 phage on immobilised His-p27 (multivalent phage)
T3 construct: also called p27Kip1; His-p27; not shown: C-terminal histidine tag
Method: as §3

[7] = ER/PR+, Her2− breast cancer cell lines

T3 sequence (P46527 whole entry): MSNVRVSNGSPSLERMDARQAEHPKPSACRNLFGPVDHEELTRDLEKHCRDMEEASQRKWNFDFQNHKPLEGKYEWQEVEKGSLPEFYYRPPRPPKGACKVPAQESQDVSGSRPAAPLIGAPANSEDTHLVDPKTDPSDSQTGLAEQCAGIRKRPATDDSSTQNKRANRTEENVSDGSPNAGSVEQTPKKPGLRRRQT
T1 sequence (P07947 91-152 limits assumed): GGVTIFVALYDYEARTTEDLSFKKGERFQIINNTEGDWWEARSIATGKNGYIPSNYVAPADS
T2 sequence (P00519 61-121 limits assumed): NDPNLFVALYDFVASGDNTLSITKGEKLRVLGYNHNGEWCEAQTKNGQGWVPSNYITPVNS

Work on `CC(=O)c1c(C)c2cnc(Nc3ccc(N4CCNCC4)cn3)nc2n(C2CCCC2)c1=O` [Palbociclib] yielded an IC50 (MCF7 cells) of 200 nM, an IC50 (HCC1954 cells) of 1000 nM and an IC50 (MDA MB231 cells) of 400 nM. For the same molecule, the “pY staining, % of cells stained” value (p27 pY88 in MCF7 cells) was 0%, the pY staining intensity (p27 pY88 in MCF7 cells; scale 0-3) was 0 and the IC50 [1] was roughly 600 nM.

For B1, the cdk2 activity [2, 7] was “blocked”, the cdk4 activity [2, 7] was “blocked” and the pY [2, 7] was “blocked”. For the same molecule, the proliferation [2, 7] was “blocked” and the duration of arrest ([2]; breast cancer cell lines) was greater than 10 days.

B2: no binding [3]; no binding [4]; no binding [5].

With B3 the Kd [6] was 250 nM.
